Reference: patent US20250313634A1 (WUXI BIOLOGICS SHANGHAI, published 2025)

Legend:
Experiment in all cases: capture ELISA on coated 1.14.4; relative to silent alanine substitutions
[1] = target: T1, hPD-L1_ECD.His point mutant R113A (human, UniProt Q9NZQ7 19-238)
T1 construct: extracellular domain
Outline: (§1)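 Capture ELISA in which supernatant containing quantified PD-L1 alanine mutant was detected with HRP anti-His antibody. Absorbance was normalized to the average of control mutants. Epitope residues were called at binding fold change <0.55.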

[2] = target: T2, hPD-L1_ECD.His point mutant E31A (human, UniProt Q9NZQ7 19-238)
T2 construct: extracellular domain
Outline: as §1

[3] = target: T3, hPD-L1_ECD.His point mutant Y28A (human, UniProt Q9NZQ7 19-238)
T3 construct: extracellular domain
Outline: as §1

[4] = target: T4, hPD-L1_ECD.His point mutant E58A (human, UniProt Q9NZQ7 19-238)
T4 construct: extracellular domain
Outline: as §1

[5] = target: T5, hPD-L1_ECD.His point mutant K129A (human, UniProt Q9NZQ7 19-238)
T5 construct: extracellular domain
Outline: as §1

[6] = target: T6, hPD-L1_ECD.His point mutant L50A (human, UniProt Q9NZQ7 19-238)
T6 construct: extracellular domain
Outline: as §1

[7] = target: T7, hPD-L1_ECD.His point mutant L214A (human, UniProt Q9NZQ7 19-238)
T7 construct: extracellular domain
Outline: as §1

[8] = target: T8, hPD-L1_ECD.His point mutant F19A (human, UniProt Q9NZQ7 19-238)
T8 construct: extracellular domain
Outline: as §1

[9] = target: T9, hPD-L1_ECD.His point mutant L94A (human, UniProt Q9NZQ7 19-238)
T9 construct: extracellular domain
Outline: as §1

[10] = target: T10, hPD-L1_ECD.His point mutant T37A (human, UniProt Q9NZQ7 19-238)
T10 construct: extracellular domain
Outline: as §1

[11] = target: T11, hPD-L1_ECD.His point mutant T127A (human, UniProt Q9NZQ7 19-238)
T11 construct: extracellular domain
Outline: as §1

[12] = target: T12, hPD-L1_ECD.His point mutant E60A (human, UniProt Q9NZQ7 19-238)
T12 construct: extracellular domain
Outline: as §1

[13] = target: T13, hPD-L1_ECD.His point mutant T22A (human, UniProt Q9NZQ7 19-238)
T13 construct: extracellular domain
Outline: as §1

[14] = target: T14, hPD-L1_ECD.His point mutant D49A (human, UniProt Q9NZQ7 19-238)
T14 construct: extracellular domain
Outline: as §1

[15] = target: T15, hPD-L1_ECD.His point mutant R212A (human, UniProt Q9NZQ7 19-238)
T15 construct: extracellular domain
Outline: as §1

[16] = target: T16, hPD-L1_ECD.His point mutant L231A (human, UniProt Q9NZQ7 19-238)
T16 construct: extracellular domain
Outline: as §1

[17] = target: T17, hPD-L1_ECD.His point mutant G159A (human, UniProt Q9NZQ7 19-238)
T17 construct: extracellular domain
Outline: as §1

[18] = target: T18, hPD-L1_ECD.His point mutant E39A (human, UniProt Q9NZQ7 19-238)
T18 construct: extracellular domain
Outline: as §1

[19] = target: T19, hPD-L1_ECD.His point mutant V225A (human, UniProt Q9NZQ7 19-238)
T19 construct: extracellular domain
Outline: as §1

[20] = target: T20, hPD-L1_ECD.His point mutant E72A (human, UniProt Q9NZQ7 19-238)
T20 construct: extracellular domain
Outline: as §1

[21] = target: T21, hPD-L1_ECD.His point mutant L48A (human, UniProt Q9NZQ7 19-238)
T21 construct: extracellular domain
Outline: as §1

[22] = target: T22, hPD-L1_ECD.His point mutant T179A (human, UniProt Q9NZQ7 19-238)
T22 construct: extracellular domain
Outline: as §1

[23] = target: T23, hPD-L1_ECD.His point mutant R125A (human, UniProt Q9NZQ7 19-238)
T23 construct: extracellular domain
Outline: as §1

[24] = target: T24, hPD-L1_ECD.His point mutant V76A (human, UniProt Q9NZQ7 19-238)
T24 construct: extracellular domain
Outline: as §1

[25] = target: T25, hPD-L1_ECD.His point mutant E71A (human, UniProt Q9NZQ7 19-238)
T25 construct: extracellular domain
Outline: as §1

[26] = target: T26, hPD-L1_ECD.His point mutant V174A (human, UniProt Q9NZQ7 19-238)
T26 construct: extracellular domain
Outline: as §1

T26 sequence (Q9NZQ7 19-238 V174A): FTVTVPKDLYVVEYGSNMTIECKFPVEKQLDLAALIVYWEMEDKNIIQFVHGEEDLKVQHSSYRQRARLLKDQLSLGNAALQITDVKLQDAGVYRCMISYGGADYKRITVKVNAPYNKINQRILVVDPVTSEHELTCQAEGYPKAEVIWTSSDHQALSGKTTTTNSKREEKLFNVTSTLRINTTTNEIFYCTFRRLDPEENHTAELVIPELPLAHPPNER
T12 sequence (Q9NZQ7 19-238 E60A): as the sequence (Q9NZQ7 19-238 V174A) above, with E42A, A156V counted along it
T25 sequence (Q9NZQ7 19-238 E71A): as the sequence (Q9NZQ7 19-238 V174A) above, with E53A, A156V counted along it
T24 sequence (Q9NZQ7 19-238 V76A): as the sequence (Q9NZQ7 19-238 V174A) above, with V58A, A156V counted along it
T4 sequence (Q9NZQ7 19-238 E58A): as the sequence (Q9NZQ7 19-238 V174A) above, with E40A, A156V counted along it
T2 sequence (Q9NZQ7 19-238 E31A): as the sequence (Q9NZQ7 19-238 V174A) above, with E13A, A156V counted along it
T18 sequence (Q9NZQ7 19-238 E39A): as the sequence (Q9NZQ7 19-238 V174A) above, with E21A, A156V counted along it
T11 sequence (Q9NZQ7 19-238 T127A): as the sequence (Q9NZQ7 19-238 V174A) above, with T109A, A156V counted along it
T8 sequence (Q9NZQ7 19-238 F19A): as the sequence (Q9NZQ7 19-238 V174A) above, with F1A, A156V counted along it
T14 sequence (Q9NZQ7 19-238 D49A): as the sequence (Q9NZQ7 19-238 V174A) above, with D31A, A156V counted along it
T15 sequence (Q9NZQ7 19-238 R212A): as the sequence (Q9NZQ7 19-238 V174A) above, with A156V, R194A counted along it
T19 sequence (Q9NZQ7 19-238 V225A): as the sequence (Q9NZQ7 19-238 V174A) above, with A156V, V207A counted along it
T1 sequence (Q9NZQ7 19-238 R113A): as the sequence (Q9NZQ7 19-238 V174A) above, with R95A, A156V counted along it
T20 sequence (Q9NZQ7 19-238 E72A): as the sequence (Q9NZQ7 19-238 V174A) above, with E54A, A156V counted along it
T22 sequence (Q9NZQ7 19-238 T179A): as the sequence (Q9NZQ7 19-238 V174A) above, with A156V, T161A counted along it
T6 sequence (Q9NZQ7 19-238 L50A): as the sequence (Q9NZQ7 19-238 V174A) above, with L32A, A156V counted along it
T13 sequence (Q9NZQ7 19-238 T22A): as the sequence (Q9NZQ7 19-238 V174A) above, with T4A, A156V counted along it
T17 sequence (Q9NZQ7 19-238 G159A): as the sequence (Q9NZQ7 19-238 V174A) above, with G141A, A156V counted along it
T23 sequence (Q9NZQ7 19-238 R125A): as the sequence (Q9NZQ7 19-238 V174A) above, with R107A, A156V counted along it
T5 sequence (Q9NZQ7 19-238 K129A): as the sequence (Q9NZQ7 19-238 V174A) above, with K111A, A156V counted along it
T10 sequence (Q9NZQ7 19-238 T37A): as the sequence (Q9NZQ7 19-238 V174A) above, with T19A, A156V counted along it
T9 sequence (Q9NZQ7 19-238 L94A): as the sequence (Q9NZQ7 19-238 V174A) above, with L76A, A156V counted along it
T16 sequence (Q9NZQ7 19-238 L231A): as the sequence (Q9NZQ7 19-238 V174A) above, with A156V, L213A counted along it
T7 sequence (Q9NZQ7 19-238 L214A): as the sequence (Q9NZQ7 19-238 V174A) above, with A156V, L196A counted along it
T3 sequence (Q9NZQ7 19-238 Y28A): as the sequence (Q9NZQ7 19-238 V174A) above, with Y10A, A156V counted along it
T21 sequence (Q9NZQ7 19-238 L48A): as the sequence (Q9NZQ7 19-238 V174A) above, with L30A, A156V counted along it

B1: 1.14.4 (antibody, V domains shown)
VH: EVQLLESGGGLVQPGGSLRLSCAASGFTFSSYAMSWVRQAPGKGLEWVSGISGSGGFTYYADSVKGRFTISRDNSKNTLYLQMNSLRAEDTAVYYCAKPPRGYNYGPFDYWGQGTLVTVSS
VL: SYVLTQPPSVSVAPGQTARITCGGNNIGSKSVHWYQQKPGQAPVLVVYDDSDRPSGIPERFSGSNSGNTATLTISRVEAGDEADYYCQVWDSSSDHVVFGGGTKLTVL
notes: Fully human monoclonal antibody with a human constant region of IgG4 isotype
fold change [1]: 0.161 fold
fold change [2]: 0.908 fold
fold change [3]: 0.842 fold
fold change [4]: 0.399 fold
fold change [5]: 0.586 fold
fold change [6]: 0.614 fold
fold change [7]: 0.958 fold
fold change [8]: 0.78 fold
fold change [9]: 1.19 fold
fold change [10]: 0.569 fold
fold change [11]: 0.735 fold
fold change [12]: 0.547 fold
fold change [13]: 0.875 fold
fold change [14]: 0.603 fold
fold change [15]: 0.87 fold
fold change [16]: 0.838 fold
fold change [17]: 0.448 fold
fold change [18]: 0.831 fold
fold change [19]: 0.749 fold
fold change [20]: 0.748 fold
fold change [21]: 0.77 fold
fold change [22]: 0.893 fold
fold change [23]: 0.959 fold
fold change [24]: 0.76 fold
fold change [25]: 0.772 fold
fold change [26]: 0.983 fold
